According to US7176279 (PALATIN TECHNOLOGIES, dated 2007):

How the values were obtained:
hMC5-R [1] = molecular target: T1, hMC5-R (human, UniProt P33032 1-325); assay: competition with 125I-NDP-MSH, HEK 293 hMC5-R membranes, 1 µM peptide
T1 construct: whole, on cells; Assayed as membranes prepared from transfected HEK 293 cells; also called MC5 receptor; melanocortin-5 receptor

[2] = molecular target: T2, MC1-R (B16-F1 mouse melanoma cells) (mouse, UniProt Q01727 1-315); assay: competition with 125I-NDP-MSH, B16-F1 membranes, 1 µM peptide
T2 construct: whole, on cells; Assayed as membranes prepared from B16-F1 mouse melanoma cells; also called MC1 receptor; melanocortin-1 receptor
T2 sequence (Q01727 whole entry): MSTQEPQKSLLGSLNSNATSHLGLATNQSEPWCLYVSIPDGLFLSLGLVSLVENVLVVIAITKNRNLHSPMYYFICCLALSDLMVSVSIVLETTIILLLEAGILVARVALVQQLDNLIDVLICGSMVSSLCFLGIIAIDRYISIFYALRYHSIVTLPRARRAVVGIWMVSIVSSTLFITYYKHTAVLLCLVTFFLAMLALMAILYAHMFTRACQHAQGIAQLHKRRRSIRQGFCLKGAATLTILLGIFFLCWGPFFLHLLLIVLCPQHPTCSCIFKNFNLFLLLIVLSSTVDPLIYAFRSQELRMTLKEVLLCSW

hMC3-R [3] = molecular target: T3, hMC3-R (human, UniProt P41968 1-323); assay: competition with 125I-NDP-MSH, HEK 293 hMC3-R membranes, 1 µM peptide
T3 construct: whole, on cells; Assayed as membranes prepared from transfected HEK 293 cells; also called MC3 receptor; melanocortin-3 receptor
T3 sequence (P41968 whole entry): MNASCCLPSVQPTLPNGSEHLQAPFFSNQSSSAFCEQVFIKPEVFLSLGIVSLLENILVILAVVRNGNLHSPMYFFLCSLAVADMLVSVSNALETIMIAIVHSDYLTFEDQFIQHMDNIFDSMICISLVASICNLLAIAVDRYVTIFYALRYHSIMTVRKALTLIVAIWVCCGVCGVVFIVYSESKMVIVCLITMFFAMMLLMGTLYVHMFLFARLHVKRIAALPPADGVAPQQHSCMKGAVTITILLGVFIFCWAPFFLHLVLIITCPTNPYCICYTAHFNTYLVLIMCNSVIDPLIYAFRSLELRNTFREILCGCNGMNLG

hMC4-R [4] = molecular target: T4, hMC4-R (human, UniProt P32245 1-332); assay: competition with 125I-NDP-MSH, HEK 293 hMC4-R membranes, 1 µM peptide
T4 construct: whole, on cells; cAMP assay on whole transfected HEK-293 cells; also called MC4 receptor; melanocortin-4 receptor
T4 sequence (P32245 whole entry): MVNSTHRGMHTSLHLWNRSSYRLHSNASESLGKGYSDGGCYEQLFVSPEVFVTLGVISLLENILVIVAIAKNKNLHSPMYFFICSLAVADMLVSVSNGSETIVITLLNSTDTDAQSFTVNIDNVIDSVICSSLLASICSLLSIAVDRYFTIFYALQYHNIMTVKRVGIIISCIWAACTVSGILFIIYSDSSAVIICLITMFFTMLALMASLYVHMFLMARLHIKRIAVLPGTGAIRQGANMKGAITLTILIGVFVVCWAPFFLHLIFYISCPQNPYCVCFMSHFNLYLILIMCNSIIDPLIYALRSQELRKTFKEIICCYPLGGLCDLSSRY

[5] = molecular target: T2, MC1-R (B16-F1 mouse melanoma cells); assay: titrated competitive binding assay on receptor membranes
hMC5-R [6] = molecular target: T1, hMC5-R; assay: as above
hMC3-R [7] = molecular target: T3, hMC3-R; assay: as above
hMC4-R [8] = molecular target: T4, hMC4-R; assay: as above

T1 sequence (P33032 whole entry): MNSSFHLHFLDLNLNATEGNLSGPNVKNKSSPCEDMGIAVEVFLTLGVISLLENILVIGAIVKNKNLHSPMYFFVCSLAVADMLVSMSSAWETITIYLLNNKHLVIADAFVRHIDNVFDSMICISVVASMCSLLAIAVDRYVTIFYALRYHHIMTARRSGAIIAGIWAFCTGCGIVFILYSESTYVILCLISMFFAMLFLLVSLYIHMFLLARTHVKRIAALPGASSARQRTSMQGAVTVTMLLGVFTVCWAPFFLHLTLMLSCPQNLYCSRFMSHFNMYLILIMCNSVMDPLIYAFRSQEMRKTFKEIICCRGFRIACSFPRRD

B1: Ac-Nle-cyclo(-Asp-His-D-Phe-Lys-Trp-Lys)-OH (peptide)
peptide: XDHFKWK
modifications: N-terminal acetyl; Nle at 1 (X); D-Phe at 4; cyclo (lactam) between side chains of Asp 2 and Lys 7; C-terminal free acid (-OH)
notes: Synthetic cyclic heptapeptide; X = norleucine; also called Ac-Nle-cyclo( -Asp-His-D-Phe-Lys-Trp-Lsy)-OH
For B1, the “Percent Inhibition At 1 µM concentration” value (hMC5-R [1]) was 17%, the “Percent Inhibition At 1 µM concentration” value [2] was 86% and the “Percent Inhibition At 1 µM concentration” value (hMC3-R [3]) was 8%. The “Percent Inhibition At 1 µM concentration” value (hMC4-R [4]) was 46%, the Ki [5] was 0.0099 µM and the Ki (hMC5-R [6]) was 2.53 µM. For the same binder, the Ki (hMC3-R [7]) was 10.8 µM and the Ki (hMC4-R [8]) was 742 µM.
